Reference: PMC2742680

Molecular target: Galdieria sulphuraria sarcosine dimethylglycine methyltransferase (Galdieria sulphuraria)
Assay: SEC

Question: Which stoichiometry N does the source give for “Galdieria sulphuraria sarcosine dimethylglycine methyltransferase (enzyme)” here?
Answer: 2
